Data as given in patent publication US11419921B2, “Methods of treating neurological disorders” (EnClear Therapies, Inc., priority 2018, dated 2022).

How the values were obtained:
[1] = 1 TAME unit = 1 μmole TAME hydrolyzed/min at pH 8.2, 25° C.; cited from earlier work
(GR)10 [2] = assay: Cleavage of (GR)10 by enzymes in solution (PBS with CaCl2 and MgCl2), LC/MS of GR repeats; format: biochemical; conditions: in solution, activated with 2.5 mM DTT
Protocol: • (GR)10 dipeptide (also (GR)8, (GR)6, (GR)4, (GR)2) were synthetized by solid-phase synthesis by CanPeptide; All peptides are uncapped and supplied lyophilized with TFA as counter ions. Purity was always above 95%. • Buffer: PBS buffer containing CaCl2 and MgCl2. • Stock solution of enzyme (e.g., 10 mg/mL) (prepared per manufacturer instructions) in PBS. Activators added as necessary. • Working solution of protein of the desired concentration (e.g., 100 μg/mL) prepared immediately before use by diluting the stock solution (e.g., 5 μL of 10 mg/mL stock solution) in PBS buffer (e.g., in 495 μL of PBS). Exemplary Procedure Using 50 μM Concentrations of (GR)10
25 μL of a 100 μM solution of (GR)10 was added to each well of a 96-well plate. 25 μL of a solution of enzyme (two times the desired final enzyme concentration) was added, and the plates were incubated at room temperature. At the specified time points (5 minutes, 10 minutes, 30 minutes, 60 minutes, and 180 minutes) 2.5 μL of a 10% TFA solution were added to stop the reaction. For the time 0 min well, the TFA was added to the well before addition of the enzyme. After last time point, all samples were further diluted with 150 μL of dilution solution. The quenched reaction mixtures were analyzed by LC/MS to determine the concentration of GR repeats of different lengths.
The chromatography and mass spectrometry conditions utilized are shown in Table 2 and Table 3, respectively.

(GR)10 [3] = assay: (GR)10 digestion with immobilized proteases (NHS-activated agarose resin) in PBS; format: biochemical; conditions: immobilized
Protocol: (§1) Protease solutions were prepared at 2 mg/mL in sterile PBS with calcium, magnesium and 200 μL ([…]) were applied to 100 μL of pre-washed NHS-activated agarose resin in 0.8 mL centrifuge columns. Reactions were left 1.5 hour at room temperature with end-to-end mixing, after which resins were washed with 12 resin volumes of PBS. Unreacted sites were blocked with 500 μL of 1M ethanolamine for 15 minutes at room temperature and resins were further washed with 24 resin volumes. Resins were stored at 4 degrees in 500 μL of PBS containing 0.05% sodium azide as preservative.
110 μL of 50 μM (GR)10 dipeptide repeats prepared in PBS were added to each immobilized protease and incubated 5 minutes at room temperature with end-to-end mixing. Columns were spun down 1 minute at 1,000 Xg to recover digested GR dipeptides. Columns were washed with 110 μL of PBS to increase (GR)10 recovery. This procedure was repeated with 60 minutes digestion time. 100 μL of each samples were transferred to a new tube and 5 μL of 10% TFA followed by 300 μL of Dilution Solution were added. The reaction mixtures were analyzed by LC/MS to determine the concentration of GR repeats of different lengths.

(GR)10 [4] = assay: (GR)10 digestion with immobilized proteases in human cerebrospinal fluid (CSF); format: biochemical; conditions: immobilized enzyme
Protocol: as §1
200 μM of (GR)10 were diluted in human cerebrospinal fluid (CSF) and 400 μL were applied to each immobilized proteases. The reaction was incubated 5 minutes at room temperature with end-to-end mixing. Columns were spun down 1 minute at 1,000 Xg to recover digested GR dipeptides. Columns were washed with 12 resin volumes of PBS. The procedure was repeated with 60 minutes digestion time. 100 μL of each samples were transferred to a clean tube, flash-frozen and subsequently used for LC/MS quantification of GR repeats of different lengths. The remaining 300 μL of each samples were flash-frozen and used to assess neuron toxicity.
(GR)10 was digested with exemplary immobilized enzymes as described above in the subsection titled “(GR)10 digestion with immobilized proteases in CSF” of Example 3. Clostripain experiments were conducted with and without DTT activation (no DTT during digestion). The results obtained after 5 and 60 minutes of reaction time are presented in Table 25 and shown in FIG. 5 (commercial and in-house immobilized trypsin), FIG. 6 (immobilized elastase, FIG. 7A (immobilized clostripain without DTT) and FIG. 7 (immobilized clostripain with 2.5 mM DTT).

[5] = 2.5 mM DTT, resin wash from 5 min reaction
[6] = 2.5 mM DTT, resin wash from 60 min reaction
[7] = activated with 2.5 mM DTT, 5 min reaction
[8] = activated with 2.5 mM DTT, 60 min reaction

B1: TPCK-trypsin: TPCK-trypsin; ThermoFisher Cat #20233 (protein, UniProt P00760 24-246, looked up)
Serine protease 1: IVGGYTCGANTVPYQVSLNSGYHFCGGSLINSQWVVSAAHCYKSGIQVRLGEDNINVVEGNEQFISASKSIVHPSYNSNTLNNDIMLIKLKSAASLNSRVASISLPTSCASAGTQCLISGWGNTKSSGTSYPDVLKCLKAPILSDSSCKSAYPGQITSNMFCAGYLEGGKDSCQGDSGGPVVCSGKLQGIVSWGSGCAQKNKPGVYTKVCNYVSWIKQTIASN
modifications: TPCK-treated
- Activity [1]: 308 TAME units/mg of protein

B2: Clostripain + DTT (protein)
chain: NKNQKVTIMYYCDADNNLEGSLLNDIEEMKTGYKDSPNLNLIALVDRSPRYSSDEKVLGEDFSDTRLYKIEHNKANRLDGKNEFPEISTTSKYEANMGDPEVLKKFIDYCKSNYEADKYVLIMANHGGGAREKSNPRLNRAICWDDSNLDKNGEADCLYMGEISDHLTEKQSVDLLAFDACLMGTAEVAYQYRPGNGGFSADTLVASSPVVWGPGFKYDKIFDRIKAGGGTNNEDDLTLGGKEQNFDPATITNEQLGALFVEEQRDSTHANGRYDQHLSFYDLKKAESVKRAIDNLAVNLSNENKKSEIEKLRGSGIHTDLMHYFDEYSEGEWVEYPYFDVYDLCEKINKSENFSSKTKDLASNAMNKLNEMIVYSFGDPSNNFKEGKNGLSIFLPNGDKKYSTYYTSTKIPHWTMQSWYNSIDTVKYGLNPYGKLSWCKDGQDPEINKVGNWFELLDSWFDKTNDVTGGVNHYQW
- (GR)1 (normalized to GR concentration) ((GR)10 [2]; 5 min reaction): 86.8 µM
- (GR)2 (normalized to GR concentration) ((GR)10 [2]; 5 min reaction): 113.6 µM
- (GR)3 (normalized to GR concentration) ((GR)10 [2]; 5 min reaction): 40.5 µM
- (GR)4 (normalized to GR concentration) ((GR)10 [2]; 5 min reaction): 27.2 µM
- (GR)5 (normalized to GR concentration) ((GR)10 [2]; 5 min reaction): 12.1 µM
- (GR)6 (normalized to GR concentration) ((GR)10 [2]; 5 min reaction): 7.3 µM
- (GR)8 (normalized to GR concentration) ((GR)10 [2]; 5 min reaction): 0.0 µM
- (GR)10 (normalized to GR concentration) ((GR)10 [2]; 5 min reaction): 5.7 µM
- (GR)1 (normalized to GR concentration) ((GR)10 [2]; 60 min reaction): 387.0 µM
- (GR)2 (normalized to GR concentration) ((GR)10 [2]; 60 min reaction): 0.0 µM
- (GR)3 (normalized to GR concentration) ((GR)10 [2]; 60 min reaction): 0.0 µM
- (GR)4 (normalized to GR concentration) ((GR)10 [2]; 60 min reaction): 0.0 µM
- (GR)5 (normalized to GR concentration) ((GR)10 [2]; 60 min reaction): 0.0 µM
- (GR)6 (normalized to GR concentration) ((GR)10 [2]; 60 min reaction): 0.0 µM
- (GR)8 (normalized to GR concentration) ((GR)10 [2]; 60 min reaction): 0.0 µM
- (GR)10 (normalized to GR concentration) ((GR)10 [2]; 60 min reaction): 0.0 µM
- (GR)1 (normalized to GR concentration) ((GR)10 [3]; [5]): 99.1 µM
- (GR)2 (normalized to GR concentration) ((GR)10 [3]; [5]): 0.0 µM
- (GR)3 (normalized to GR concentration) ((GR)10 [3]; [5]): 0.0 µM
- (GR)4 (normalized to GR concentration) ((GR)10 [3]; [5]): 0.0 µM
- (GR)5 (normalized to GR concentration) ((GR)10 [3]; [5]): 0.0 µM
- (GR)6 (normalized to GR concentration) ((GR)10 [3]; [5]): 0.0 µM
- (GR)8 (normalized to GR concentration) ((GR)10 [3]; [5]): 0.0 µM
- (GR)10 (normalized to GR concentration) ((GR)10 [3]; [5]): 0.0 µM
- (GR)1 (normalized to GR concentration) ((GR)10 [3]; [6]): 125.6 µM
- (GR)2 (normalized to GR concentration) ((GR)10 [3]; [6]): 0.0 µM
- (GR)3 (normalized to GR concentration) ((GR)10 [3]; [6]): 0.0 µM
- (GR)4 (normalized to GR concentration) ((GR)10 [3]; [6]): 0.0 µM
- (GR)5 (normalized to GR concentration) ((GR)10 [3]; [6]): 0.0 µM
- (GR)6 (normalized to GR concentration) ((GR)10 [3]; [6]): 0.0 µM
- (GR)8 (normalized to GR concentration) ((GR)10 [3]; [6]): 0.0 µM
- (GR)10 (normalized to GR concentration) ((GR)10 [3]; [6]): 0.0 µM
- (GR)1 (normalized to GR concentration) ((GR)10 [3]; [7]): 299.3 µM
- (GR)2 (normalized to GR concentration) ((GR)10 [3]; [7]): 0.0 µM
- (GR)3 (normalized to GR concentration) ((GR)10 [3]; [7]): 0.0 µM
- (GR)4 (normalized to GR concentration) ((GR)10 [3]; [7]): 0.0 µM
- (GR)5 (normalized to GR concentration) ((GR)10 [3]; [7]): 0.0 µM
- (GR)6 (normalized to GR concentration) ((GR)10 [3]; [7]): 0.0 µM
- (GR)8 (normalized to GR concentration) ((GR)10 [3]; [7]): 0.0 µM
- (GR)10 (normalized to GR concentration) ((GR)10 [3]; [7]): 0.0 µM
- (GR)1 (normalized to GR concentration) ((GR)10 [3]; [8]): 335.6 µM
- (GR)2 (normalized to GR concentration) ((GR)10 [3]; [8]): 0.0 µM
- (GR)3 (normalized to GR concentration) ((GR)10 [3]; [8]): 0.0 µM
- (GR)4 (normalized to GR concentration) ((GR)10 [3]; [8]): 0.0 µM
- (GR)5 (normalized to GR concentration) ((GR)10 [3]; [8]): 0.0 µM
- (GR)6 (normalized to GR concentration) ((GR)10 [3]; [8]): 0.0 µM
- (GR)8 (normalized to GR concentration) ((GR)10 [3]; [8]): 0.0 µM
- (GR)10 (normalized to GR concentration) ((GR)10 [3]; [8]): 0.0 µM
- (GR)1 (normalized uM) ((GR)10 [4]; 5 min reaction): 79.8 µM
- (GR)2 (normalized uM) ((GR)10 [4]; 5 min reaction): 83.2 µM
- (GR)3 (normalized uM) ((GR)10 [4]; 5 min reaction): 70.5 µM
- (GR)4 (normalized uM) ((GR)10 [4]; 5 min reaction): 90.8 µM
- (GR)5 (normalized uM) ((GR)10 [4]; 5 min reaction): 90.5 µM
- (GR)6 (normalized uM) ((GR)10 [4]; 5 min reaction): 86.4 µM
- (GR)8 (normalized uM) ((GR)10 [4]; 5 min reaction): 64.8 µM
- (GR)10 (normalized uM) ((GR)10 [4]; 5 min reaction): 58 µM
- (GR)1 (normalized uM) ((GR)10 [4]; 60 min reaction): 458.3 µM
- (GR)2 (normalized uM) ((GR)10 [4]; 60 min reaction): 409.2 µM
- (GR)3 (normalized uM) ((GR)10 [4]; 60 min reaction): 85.5 µM
- (GR)4 (normalized uM) ((GR)10 [4]; 60 min reaction): 21.2 µM
- (GR)5 (normalized uM) ((GR)10 [4]; 60 min reaction): 3 µM
- (GR)6 (normalized uM) ((GR)10 [4]; 60 min reaction): 0 µM
- (GR)8 (normalized uM) ((GR)10 [4]; 60 min reaction): 0 µM
- (GR)10 (normalized uM) ((GR)10 [4]; 60 min reaction): 0 µM
